In patent US20250376539A1 (KIRA PHARMACEUTICALS SUZHOU, published 2025):

Experiments:
[1] = target: T1, recombinant human complement C2 (NP_000054.2), C-terminal 6His-tag, made in house (CHO cell expression) (human, UniProt P06681 21-752); assay: BLI (Gator), antibody on probe; 600 s association at pH 7.4, 600 s dissociation at pH 7.4
T1 construct: a linker before the tag is not described; also called human C2; Human C2
T1 sequence: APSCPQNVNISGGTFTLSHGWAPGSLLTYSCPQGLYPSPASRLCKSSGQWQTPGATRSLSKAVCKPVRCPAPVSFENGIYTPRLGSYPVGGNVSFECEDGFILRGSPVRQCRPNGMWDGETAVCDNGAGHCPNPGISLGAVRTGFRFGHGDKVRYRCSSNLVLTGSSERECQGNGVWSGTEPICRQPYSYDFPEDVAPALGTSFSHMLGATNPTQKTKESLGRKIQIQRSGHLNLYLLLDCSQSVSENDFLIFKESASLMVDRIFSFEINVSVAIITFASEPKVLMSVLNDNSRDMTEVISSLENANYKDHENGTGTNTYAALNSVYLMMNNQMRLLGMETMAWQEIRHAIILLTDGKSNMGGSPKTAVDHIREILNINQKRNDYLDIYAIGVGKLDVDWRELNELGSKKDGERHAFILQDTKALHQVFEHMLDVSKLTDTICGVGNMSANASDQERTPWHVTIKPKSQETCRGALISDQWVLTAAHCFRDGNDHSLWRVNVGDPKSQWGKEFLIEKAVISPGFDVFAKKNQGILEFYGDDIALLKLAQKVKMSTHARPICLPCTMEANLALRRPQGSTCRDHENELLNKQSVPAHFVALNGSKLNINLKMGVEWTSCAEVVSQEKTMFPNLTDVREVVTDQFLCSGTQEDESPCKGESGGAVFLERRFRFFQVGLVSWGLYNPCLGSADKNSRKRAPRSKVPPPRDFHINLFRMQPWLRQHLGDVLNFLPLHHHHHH
Experimental: (§1) The histidine mutant constructs in Table 4 were tested for their pH-dependent dissociation from human C2. Probe-immobilized anti-C2 antibodies were incubated with C2 at pH 7.4 for 600s, followed by a 600s dissociation period in K Buffer at pH 7.4 or pH 5.8. The data were processed and analyzed by the Gator evaluation software.
(§2) Non-fusion mAb were used for comparison.

[2] = target: T1, recombinant human complement C2 …; assay: BLI (Gator), antibody on probe; 600 s association at pH 7.4, 600 s dissociation at pH 5.8
Experimental: as §1, §2

[3] = target: T2, recombinant cynomolgus (cyno) complement C2 (XP_005553508.1), C-terminal 6His-tag, made in house (CHO cell … (cynomolgus monkey (Macaca fascicularis), UniProt P06681 21-752 (human entry))); assay: as above
T2 construct: also called cyno C2; Cyno C2
T2 chain: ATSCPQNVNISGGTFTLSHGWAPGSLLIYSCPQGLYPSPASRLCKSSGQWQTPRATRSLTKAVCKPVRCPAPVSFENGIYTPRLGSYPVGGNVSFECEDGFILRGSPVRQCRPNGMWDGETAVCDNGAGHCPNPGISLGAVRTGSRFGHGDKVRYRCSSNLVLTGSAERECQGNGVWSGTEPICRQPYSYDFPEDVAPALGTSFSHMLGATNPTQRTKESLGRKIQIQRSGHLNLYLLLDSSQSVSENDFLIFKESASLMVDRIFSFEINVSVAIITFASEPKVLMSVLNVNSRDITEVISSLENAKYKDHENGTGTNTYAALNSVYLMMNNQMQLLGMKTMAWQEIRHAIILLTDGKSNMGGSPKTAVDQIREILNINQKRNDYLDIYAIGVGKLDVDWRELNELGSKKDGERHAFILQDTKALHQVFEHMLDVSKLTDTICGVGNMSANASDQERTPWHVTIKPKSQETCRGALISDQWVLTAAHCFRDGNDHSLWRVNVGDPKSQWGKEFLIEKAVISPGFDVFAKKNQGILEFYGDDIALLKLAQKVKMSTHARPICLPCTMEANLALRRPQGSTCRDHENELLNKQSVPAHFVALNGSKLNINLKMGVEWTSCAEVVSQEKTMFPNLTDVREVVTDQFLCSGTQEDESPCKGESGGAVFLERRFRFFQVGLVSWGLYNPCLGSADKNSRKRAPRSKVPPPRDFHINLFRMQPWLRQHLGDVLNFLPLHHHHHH
Experimental: as §1, §2

[4] = target: T1, recombinant human complement C2 …; assay: ELISA
[5] = target: T2, recombinant cynomolgus (cyno) …; assay: ELISA
[6] = target: T3, recombinant human C2a, C-terminal 6His-tag, made in house (CHO cell expression) (human, UniProt P06681 244-752); assay: binding kinetics (BLI presumed)
T3 sequence: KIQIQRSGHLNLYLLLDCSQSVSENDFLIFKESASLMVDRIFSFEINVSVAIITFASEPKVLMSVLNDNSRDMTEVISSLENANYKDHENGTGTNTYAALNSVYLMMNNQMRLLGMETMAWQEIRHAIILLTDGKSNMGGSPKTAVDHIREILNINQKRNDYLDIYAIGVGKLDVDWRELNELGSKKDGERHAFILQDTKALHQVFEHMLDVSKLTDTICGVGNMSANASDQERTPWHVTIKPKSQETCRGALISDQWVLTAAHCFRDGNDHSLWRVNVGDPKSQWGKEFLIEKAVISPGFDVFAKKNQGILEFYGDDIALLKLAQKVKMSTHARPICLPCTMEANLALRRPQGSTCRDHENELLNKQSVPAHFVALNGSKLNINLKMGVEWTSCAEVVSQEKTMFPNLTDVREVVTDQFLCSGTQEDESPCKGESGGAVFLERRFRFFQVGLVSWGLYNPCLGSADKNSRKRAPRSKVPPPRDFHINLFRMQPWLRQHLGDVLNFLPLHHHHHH

B1: anti-C2 antibody 3.2 (antibody, IgG4, V domains shown)
VH: EVQLLESGGGLVQPGGSLRLSCAASGFTFRHYAMSWVRQAPGKGLEWVSLISGSGASTFYADSVKGRFTISRDNSENMLYLQMNSLRAEDTAVYYCAKDSLAVAGSEYFQHWGQGTLVTVSS
VL: SYVLTQAPSVSVAPGQTARITCGGNYFGGKSVHWYQQRPGQAPVLVVYDDSDRPSGIPERFSGSKSGNTATLAISRVEAGDEAAYYCQVYDTSSDHWVFGGGTKLTVL
notes: Recombinant; also called WT; "WT" 3.2
For B1, the “Dissociation (%) pH 7.4” value [1] was 5.27%, the “Dissociation (%) pH 5.8” value [2] was 10.4% and the “Dissociation (%) pH 5.8” value [3] was 14.5%. The EC50 [4] was 0.0504 nM and the EC50 [5] was 0.0478 nM.

B2: anti-C2 antibody 69.44 (antibody, IgG4, V domains shown)
VH: QVQLVQSGAEVKKPGASVKVSCKASGYSFTTYYMYWVRQAPGQGLEWMGIITPSGGSTTYAQKFQDRVTMTRDASTTTVYMELSSLRSEDTAVYYCARGYEGSYGFDHWGQGTLVTVSS
VL: SYELTQPPSVSLSPGQTASITCSGDKLGNKYTCWYQQKPGQSPVLVIYQDNKRPSGIPERFSGSNSGNTATLTISGTQAMDEADYYCQTWDSSTAVFGGGTKLTVL
notes: Recombinant
With B2 the “Dissociation (%) pH 7.4” value [1] was 3.15%, the “Dissociation (%) pH 5.8” value [2] was 2.45% and the “Dissociation (%) pH 5.8” value [3] was 7.22%. It also gave a Kd [6] of 0.347 nM, a koff [6] of 6.68e-05 s⁻¹ and a kon [6] of 193000 M⁻¹ s⁻¹. For the same binder, the EC50 [4] was 0.0474 nM and the EC50 [5] was 0.0794 nM.
